Measured values reported in patent US10428342B2, “P-coumaroyl-CoA:monolignol transferase” (Wisconsin Alumni Research Foundation, priority 2011, dated 2019).
Entries after “also recorded” stand apart in the source; their conditions may differ. One block for each molecule: values may come before it.

Experiments:
[1] = test system: feruloyl-CoA:monolignol transferase (FMT); experiment: FMT enzymatic assay (UPLC detection of product); type: biochemical, Angelica sinensis; conditions: for FMT activity with monolignol: monolignol as acyl acceptor, feruloyl-CoA as donor; for Product formed by FMT from CoA thioester: CoA thioester as acyl donor, coniferyl alcohol as acceptor
Procedure: The FMT activity assay contained 100 mM MOPS pH 6.8, 1 mM dithiothreitol (DTT), 1 mM feruloyl-CoA, 1 mM coniferyl alcohol, 3.9 μg of purified FMT protein and deionized water to a volume of 50 μL. After a 30-minute incubation, 1 μL of 10 M hydrochloric acid was added to stop the reaction. Because the product synthesized in the reaction, coniferyl ferulate (CAFA), is insoluble, 50 μL of methanol was added to solubilize the CAFA. Prior to UPLC, protein and insoluble material were removed by filtering through an Amicon Ultracel 10K membrane filter (Millipore). The flow-through was analyzed using an Acquity Ultra Performance LC with an Acquity UPLC BEH C18 1.7 μm 2.1×100 mm column and the Acquity Console and Empower 2 Software, all from Waters Corporation. The solvents used in this method were solvent A, 0.1% trifluoroacetic acid, and solvent B, 100% acetonitrile. Samples were analyzed using the following gradient conditions, 13% B, for 5 minutes, 1 minute linear gradient to 42% B, held for 4 minutes, 1 minute linear gradient to 100% B, held for 1 minutes and 3 minutes at 13% B with a flow rate of 0.3 ml/minute. This method was then used to analyze a 10 μL injection of each assay reaction; standards for each of the substrates along with chemically synthesized CAFA were used to determine retention times for each compound. Purified recombinant enzyme was assayed for FMT activity using a reaction mixture containing 2 mM coniferyl alcohol, […], 100 mM HEPES pH 7.4 and 1 mM DTT. The second most abundant BAHD acyltransferase gene when incubated with Coniferyl alcohol and feruloyl-CoA produced a compound with the retention time of authentic coniferyl ferulate (CAFA) (FIG. 2). […] The addition of methanol to 50% after stopping the enzyme with acid was required to analyze the product by UPLC. The insolubility of the product made partial purification easy as the product was separated from the substrates by centrifugation.

OsPMT = target: T1, OsPMT (Oryza sativa subsp. japonica, UniProt Q5JNT2); experiment: OsPMT kinetic assay (CoASH release detected with DTNB at A412); type: biochemical; conditions: for Substrate quality as acyl donor for OsPMT: tested acyl donors, in words
T1 construct: 6xHis (N); made in house; host or cells: E. coli BL21
T1 sequence (Q5JNT2 1-439): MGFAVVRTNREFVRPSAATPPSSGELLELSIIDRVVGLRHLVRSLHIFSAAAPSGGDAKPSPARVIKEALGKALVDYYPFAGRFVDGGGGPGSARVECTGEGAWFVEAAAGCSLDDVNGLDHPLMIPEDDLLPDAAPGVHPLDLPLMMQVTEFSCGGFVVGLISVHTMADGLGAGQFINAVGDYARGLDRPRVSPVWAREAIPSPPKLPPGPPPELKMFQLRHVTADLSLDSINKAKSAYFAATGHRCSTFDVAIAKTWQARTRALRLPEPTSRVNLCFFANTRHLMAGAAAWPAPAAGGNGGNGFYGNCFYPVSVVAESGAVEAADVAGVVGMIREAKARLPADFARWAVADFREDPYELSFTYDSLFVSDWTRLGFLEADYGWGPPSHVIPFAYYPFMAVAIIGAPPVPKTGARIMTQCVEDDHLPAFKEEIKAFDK
Procedure: (§1) Kinetics—Kinetic analyses were performed using an assay modified from Santoro et al. (Anal. Biochem. 354: 70-77 (2006)). The standard 100 μL reaction mixture contained 50 mM sodium phosphate pH 6, 2 mM 5,5′-dithiobis-(2-nitrobenzoic acid) (DTNB), 0.01-1 mM CoA thioester substrate, and 0.005-1.0 mM monolignol alcohol substrate and initiated by adding 100 ng of purified OsPMT protein in 1×BSA (NEB). The CoA thioester substrates included p-coumaroyl-CoA 2a and caffeoyl-CoA 2b, and the monolignol substrates included sinapyl alcohol 1S and p-coumaryl alcohol 1H. Enzyme activity was measured as an increase in CoASH, detected with DTNB at A412, which is released as a result of monolignol conjugate synthesis (id.). The absorbance was measured every three min. for 40 min on a Spectramax Plus microplate reader using Softmax Pro 5.3 (Molecular Devices). The reactions were stopped by adding hydrochloric acid to a concentration of 100 mM, and then solubilized by adding methanol to 50%. Aliquots of 10 μL from each assay were analyzed via UPLC to verify product production. A standard curve was created for each CoA thioester from triplicate assays of five concentrations from 50 nM to 1 mM of coenzyme-A. Each reaction contained the same buffer and DTNB concentrations as the kinetic assays, along with 0.5 mM of a CoA thioester (p-coumaroyl-CoA 2a, caffeoyl-CoA 2b, or feruloyl-CoA 2c). The equation derived from fitting this standard curve was used to calculate the quantity (moles) of product synthesized in the assay. Kinetic parameters, Vmax and Km, were calculated using a nonlinear regression by entering the reaction rate and substrate concentration into the program R64, version 2.12.0 (Team, R. D. C., R: A language and environment for statistical computing, R Foundation for Statistical Computing, Vienna, Austria (2010).

[2] = Solubility observed in aqueous enzyme assay mixtures; type: physicochemical; conditions: aqueous assay mixture, in words
Procedure: The FMT activity assay contained 100 mM MOPS pH 6.8, 1 mM dithiothreitol (DTT), 1 mM feruloyl-CoA, 1 mM coniferyl alcohol, 3.9 μg of purified FMT protein and deionized water to a volume of 50 μL. After a 30-minute incubation, 1 μL of 10 M hydrochloric acid was added to stop the reaction. Because the product synthesized in the reaction, coniferyl ferulate (CAFA), is insoluble, 50 μL of methanol was added to solubilize the CAFA. Prior to UPLC, protein and insoluble material were removed by filtering through an Amicon Ultracel 10K membrane filter (Millipore). The flow-through was analyzed using an Acquity Ultra Performance LC with an Acquity UPLC BEH C18 1.7 μm 2.1×100 mm column and the Acquity Console and Empower 2 Software, all from Waters Corporation. The solvents used in this method were solvent A, 0.1% trifluoroacetic acid, and solvent B, 100% acetonitrile. Samples were analyzed using the following gradient conditions, 13% B, for 5 minutes, 1 minute linear gradient to 42% B, held for 4 minutes, 1 minute linear gradient to 100% B, held for 1 minutes and 3 minutes at 13% B with a flow rate of 0.3 ml/minute. This method was then used to analyze a 10 μL injection of each assay reaction; standards for each of the substrates along with chemically synthesized CAFA were used to determine retention times for each compound. […]

[3] = substrate: CC(C)(COP(=O)(O)OP(=O)(O)OC[C@H]1O[C@@H](n2cnc3c(N)ncnc32)[C@H](O)[C@@H]1OP(=O)(O)O)[C@@H](O)C(=O)NCCC(=O)NCCSC(=O)/C=C/c1ccc(O)c(O)c1; experiment: OsPMT kinetic assay (CoASH release detected with DTNB at A412); type: biochemical, Oryza sativa; conditions: other: varying substrate, pH 6.0
Procedure: as §1

[4] = substrate: CC(C)(COP(=O)(O)OP(=O)(O)OC[C@H]1O[C@@H](n2cnc3c(N)ncnc32)[C@H](O)[C@@H]1OP(=O)(O)O)[C@@H](O)C(=O)NCCC(=O)NCCSC(=O)/C=C/c1ccc(O)cc1; experiment: as above; type: biochemical, Oryza sativa; conditions: other: varying substrate, pH 6.0
Procedure: as §1

[5] = substrate: COc1cc(/C=C/CO)cc(OC)c1O; experiment: as above; type: biochemical, Oryza sativa; conditions: other: varying substrate, pH 6.0
Procedure: as §1

[6] = substrate: OC/C=C/c1ccc(O)cc1; experiment: as above; type: biochemical, Oryza sativa; conditions: other: varying substrate, pH 6.0
Procedure: as §1

[7] = saturating substrate p-coumaryl alcohol 1H
[8] = saturating substrate sinapyl alcohol 1S
[9] = saturating substrate caffeoyl-CoA 2b
[10] = saturating substrate p-coumaroyl-CoA 2a

Molecule: COc1cc(/C=C/COC(=O)/C=C/c2ccc(O)c(OC)c2)ccc1O [coniferyl ferulate]
Solubility [2]: mostly insoluble in water; also recorded: partially insoluble

Molecule: OC/C=C/c1ccc(O)c(O)c1 [caffeyl alcohol 1C, caffeyl alcohol]
Solubility [2]: limited solubility

Molecule: CC(C)(COP(=O)(O)OP(=O)(O)OC[C@H]1O[C@@H](n2cnc3c(N)ncnc32)[C@H](O)[C@@H]1OP(=O)(O)O)[C@@H](O)C(=O)NCCC(=O)NCCSC(=O)/C=C/c1ccc(O)cc1 [p-coumaroyl-CoA 2a, p-coumaroyl-CoA]
Maximum reaction rate relative to caffeoyl-CoA 2b (OsPMT; acyl donor compared with caffeoyl-CoA 2b): at least 5 fold | Substrate quality as acyl donor for OsPMT (OsPMT): good substrates | Product formed by FMT from CoA thioester [1]: very little product

B1: OsPMT (Oryza sativa Japonica Group) (protein)
chain: MGFAVVRTNREFVRPSAATPPSSGELLELSIIDRVVGLRHLVRSLHIFSAAAPSGGDAKPSPARVIKEALGKALVDYYPFAGRFVDGGGGPGSARVECTGEGAWFVEAAAGCSLDDVNGLDHPLMIPEDDLLPDAAPGVHPLDLPLMMQVTEFSCGGFVVGLISVHTMADGLGAGQFINAVGDYARGLDRPRVSPVWAREAIPSPPKLPPGPPPELKMFQLRHVTADLSLDSINKAKSAYFAATGHRCSTFDVAIAKTWQARTRALRLPEPTSRVNLCFFANTRHLMAGAAAWPAPAAGGNGGNGFYGNCFYPVSVVAESGAVEAADVAGVVGMIREAKARLPADFARWAVADFREDPYELSFTYDSLFVSDWTRLGFLEADYGWGPPSHVIPFAYYPFMAVAIIGAPPVPKTGARIMTQCVEDDHLPAFKEEIKAFDK
notes: 6xHis (N); made in house; host or cells: E. coli BL21
Km [3, 7]: 92 ± 11 µM | Vmax [3, 7]: 0.515 µmol/min/mg | kcat [3, 7]: 0.41 s⁻¹ | Km [3, 8]: 75 ± 5 µM | Vmax [3, 8]: 0.45 µmol/min/mg | kcat [3, 8]: 0.36 s⁻¹ | Km [4, 7]: 281 ± 62 µM | Vmax [4, 7]: 3.69 µmol/min/mg | kcat [4, 7]: 2.93 s⁻¹ | Km [4, 8]: 105 ± 12 µM | Vmax [4, 8]: 0.75 µmol/min/mg | kcat [4, 8]: 0.6 s⁻¹ | Km [5, 9]: 15 ± 2 µM | Vmax [5, 9]: 0.486 µmol/min/mg | kcat [5, 9]: 0.39 s⁻¹ | Km [5, 10]: 35 ± 5 µM | Vmax [5, 10]: 0.648 µmol/min/mg | kcat [5, 10]: 0.51 s⁻¹ | Km [6, 9]: 27 ± 6 µM | Vmax [6, 9]: 0.355 µmol/min/mg | kcat [6, 9]: 0.28 s⁻¹ | Km [6, 10]: 141 ± 14 µM | Vmax [6, 10]: 3.25 µmol/min/mg | kcat [6, 10]: 2.58 s⁻¹

The remaining lines, values ahead:

FMT activity with monolignol [1]: active
Molecule: COc1cc(/C=C/CO)cc(OC)c1O [sinapyl alcohol 1S, sinapyl alcohol]

Substrate quality as acyl donor for OsPMT (OsPMT): poor substrate | Product formed by FMT from CoA thioester [1]: substantial product
Molecule: COc1cc(/C=C/C(=O)SCCNC(=O)CCNC(=O)[C@H](O)C(C)(C)COP(=O)(O)OP(=O)(O)OC[C@H]2O[C@@H](n3cnc4c(N)ncnc43)[C@H](O)[C@@H]2OP(=O)(O)O)ccc1O [feruloyl-CoA 2c, feruloyl-CoA]

Synthetic rate relative to sinapyl alcohol 1S (OsPMT; acyl acceptor compared with sinapyl alcohol 1S): 6 times | FMT activity with monolignol [1]: active
Molecule: OC/C=C/c1ccc(O)cc1 [p-coumaryl alcohol 1H, p-coumaryl alcohol]

FMT activity with monolignol [1]: active
Molecule: COc1cc(/C=C/CO)ccc1O [coniferyl alcohol 1G, coniferyl alcohol]

Substrate quality as acyl donor for OsPMT (OsPMT): good substrates | Product formed by FMT from CoA thioester [1]: very little product
Molecule: CC(C)(COP(=O)(O)OP(=O)(O)OC[C@H]1O[C@@H](n2cnc3c(N)ncnc32)[C@H](O)[C@@H]1OP(=O)(O)O)[C@@H](O)C(=O)NCCC(=O)NCCSC(=O)/C=C/c1ccc(O)c(O)c1 [caffeoyl-CoA 2b, caffeoyl-CoA]
